{"source": "patent US20200315149", "key": {"[1]": {"biological_target": "recombinant human pro-HGF (UniProt P14210)", "sequence (P14210 32-728)": "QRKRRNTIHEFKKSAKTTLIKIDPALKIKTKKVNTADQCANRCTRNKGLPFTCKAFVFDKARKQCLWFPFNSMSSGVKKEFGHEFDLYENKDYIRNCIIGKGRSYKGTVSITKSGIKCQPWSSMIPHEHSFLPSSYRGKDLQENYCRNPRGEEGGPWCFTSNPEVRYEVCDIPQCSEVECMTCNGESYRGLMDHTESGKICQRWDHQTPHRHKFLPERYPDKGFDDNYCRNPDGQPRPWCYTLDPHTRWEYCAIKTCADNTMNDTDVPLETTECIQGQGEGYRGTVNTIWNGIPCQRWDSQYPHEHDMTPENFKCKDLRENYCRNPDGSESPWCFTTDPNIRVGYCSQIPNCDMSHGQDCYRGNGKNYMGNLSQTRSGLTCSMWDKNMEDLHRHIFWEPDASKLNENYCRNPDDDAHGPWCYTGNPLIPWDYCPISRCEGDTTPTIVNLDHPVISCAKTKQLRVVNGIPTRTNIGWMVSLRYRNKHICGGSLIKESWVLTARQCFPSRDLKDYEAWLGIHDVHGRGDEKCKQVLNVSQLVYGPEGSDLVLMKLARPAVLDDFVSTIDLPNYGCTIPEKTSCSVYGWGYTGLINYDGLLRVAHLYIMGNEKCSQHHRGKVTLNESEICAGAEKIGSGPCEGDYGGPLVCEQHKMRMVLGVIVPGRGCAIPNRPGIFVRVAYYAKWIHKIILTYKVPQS"}, "cathepsin K-cleaved FXII": {"biological_target": "cathepsin K-cleaved FXII (UniProt P00748)", "sequence (P00748 20-615)": "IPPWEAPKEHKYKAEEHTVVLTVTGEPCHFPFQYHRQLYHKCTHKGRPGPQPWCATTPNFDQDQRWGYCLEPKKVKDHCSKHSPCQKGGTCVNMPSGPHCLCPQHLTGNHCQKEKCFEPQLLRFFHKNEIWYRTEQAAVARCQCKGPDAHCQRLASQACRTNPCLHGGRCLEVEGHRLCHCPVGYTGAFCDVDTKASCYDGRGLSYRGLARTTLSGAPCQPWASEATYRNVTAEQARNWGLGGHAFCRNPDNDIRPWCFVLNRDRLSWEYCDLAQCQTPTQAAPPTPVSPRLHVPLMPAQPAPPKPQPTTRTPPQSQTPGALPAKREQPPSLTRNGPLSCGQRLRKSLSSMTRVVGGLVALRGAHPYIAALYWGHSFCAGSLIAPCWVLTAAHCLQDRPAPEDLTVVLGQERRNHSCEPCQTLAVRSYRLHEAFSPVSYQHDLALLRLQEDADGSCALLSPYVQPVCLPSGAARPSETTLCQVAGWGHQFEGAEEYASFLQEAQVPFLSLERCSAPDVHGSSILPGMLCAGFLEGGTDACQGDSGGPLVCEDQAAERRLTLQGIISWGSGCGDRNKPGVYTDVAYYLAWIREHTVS"}, "[2]": {"biological_target": "full-length coagulation factor XII purified from human plasma (UniProt P00748)", "sequence (P00748 20-615)": "as above"}}, "data": [{"substance": "thrombin", "values": [{"measurement": "cleavage of pro-HGF, western blot", "setting": "[1]", "value": "other serine proteases found in the brain such as thrombin and tissue plasminogen activator did not convert pro-HGF to HGF"}]}, {"substance": "plasma kallikrein", "values": [{"measurement": "FXIIa activity on chromogenic substrate S-2302 after incubation with plasma kallikrein (15 nM, 15 min)", "setting": "cathepsin K-cleaved FXII", "value": "cathepsin K-cleaved FXII had dramatically increased activity compared to full-length FXII when incubated with plasma kallikrein"}, {"measurement": "FXIIa activity on chromogenic substrate S-2302 after incubation with plasma kallikrein (15 nM, 15 min)", "setting": "[2]", "value": "Cathepsin-cleaved FXII incubated with kallikrein (15 nM) had much higher activity than full length FXII incubated with kallikrein"}]}]}
